The chains are these.
B1: Aspartate/asparagine-β-hydroxylase (AspH) (Homo sapiens; H679A) (protein)
chain: RKTDDPEQKAKVKKKKPKLLNKFDKTIKAELDAAEKLRKRGKIEEAVNAFKELVRKYPQSPRARYGKAQCEDDLAEKRRSNEVLRGAIETYQEVASLPDVPADLLKLSLKRRSDRQQFLGHMRGSLLTLQRLVQLFPNDTSLKNDLGVGYLLIGDNDNAKKVYEEVLSVTPNDGFAKVHYGFILKAQNKIAESIPYLKEGIESGDPGTDDGRFYFHLGDAMQRVGNKEAYKWYELGHKRGHFASVWQRSLYNVNGLKAQPWWTPKETGYTELVKSLERNWKLIRDEGLAVMDKAKGLFLPEDENLREKGDWSQFTLWQQGRRNENACKGAPKTCTLLEKFPETTGCRRGQIKYSIMHPGTHVWPATGPTNCRLRMHLGLVIPKEGCKIRCANETKTWEEGKVLIFDDSFEHEVWQDASSFRLIFIVDVWHPELTPQQRRSLPAI
B2: Aspartate/asparagine-β-hydroxylase (AspH) (Homo sapiens) (protein)
chain: B1 chain with A365H
B3: Aspartate/asparagine-β-hydroxylase (AspH) (Homo sapiens; H725A) (protein)
chain: B1 chain with A365H, H411A

Substitutions are numbered along the chain they refer to. Names may count otherwise.

Substrate in this data set: O=C(O)CCC(=O)C(=O)O
As to the kind of experiment: purified protein. The following applies: Fe(II) active site Fe(II).
Regarding B1, the Km came out at 109 ± 20 µM, the catalytic constant (kcat) amounted to 0.18 s⁻¹ and the specificity constant (kcat/Km) amounted to 1700 M⁻¹ s⁻¹.
In the case of B2, the Km turned out to be 1.1 ± 0.4 µM, the kcat worked out at 0.31 s⁻¹ and the kcat/Km was 282000 M⁻¹ s⁻¹.
For the protein B3, the Michaelis constant (Km) was determined as 211 ± 65 µM, the kcat came to 0.08 s⁻¹ and the kcat/Km amounted to 380 M⁻¹ s⁻¹.

In general, Km refers to the concentration of substrate that gives half-maximal velocity. As usually defined, the kcat is the maximal rate divided by the concentration of active sites. Broadly, the kcat/Km is the turnover number divided by the Michaelis constant.

Source of the values: PMC10947486.
